{"source": "patent US20120190834A1", "key": {"[1]": {"biological_target": "TFPI (source not stated; Examples 8, 12 and 45), P10646", "sequence (P10646 whole entry, looked up)": "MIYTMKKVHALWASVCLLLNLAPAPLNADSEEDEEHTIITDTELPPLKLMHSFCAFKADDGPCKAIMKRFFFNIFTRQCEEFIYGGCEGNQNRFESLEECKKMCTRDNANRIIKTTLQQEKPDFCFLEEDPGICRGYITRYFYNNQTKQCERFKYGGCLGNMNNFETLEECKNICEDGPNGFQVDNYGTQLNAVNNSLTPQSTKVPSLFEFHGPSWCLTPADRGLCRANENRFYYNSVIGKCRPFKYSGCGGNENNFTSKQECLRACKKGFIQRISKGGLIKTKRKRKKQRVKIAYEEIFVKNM"}, "[2]": {"biological_target": "recombinant human TFPI purified from a cell line from Novo Nordisk"}}}
{"protein": "tissue factor:Factor VIIa complex (sources not stated; Examples 8 and 12) (protein) chain 1: SGTTNTVAAYNLTWKSTNFKTILEWEPKPVNQVYTVQISTKSGDWKSKCFYTTDTECDLTDEIVKDVKQTYLARVFSYPAGNVESTGSAGEPLYENSPEFTPYLETNLGQPTIQSFEQVGTKVNVTVEDERTLVRRNNTFLSLRDVFGKDLIYTLYYWKSSSSGKKTAKTNTNEFLIDVDKGENYCFSVQAVIPSRTVNRKSTDSPVECMGQEKGEFREIFYIIGAVVFVVIILVIILAISLHKCRKAGVGQSWKENSPLNVS chain 2: ANAFLEELRPGSLERECKEEQCSFEEAREIFKDAERTKLFWISYSDGDQCASSPCQNGGSCKDQLQSYICFCLPAFEGRNCETHKDDQLICVNENGGCEQYCSDHTGTKRSCRCHEGYSLLADGVSCTPTVEYPCGKIPILEKRNASKPQGR chain 3: IVGGKVCPKGECPWQVLLLVNGAQLCGGTLINTIWVVSAAHCFDKIKNWRNLIAVLGEHDLSEHDGDEQSRRVAQVIIPSTYVPGTTNHDIALLRLHQPVVLTDHVVPLCLPERTFSERTLAFVRFSLVSGWGQLLDRGATALELMVLNVPRLMTQDCLQQSRKVGDSPNITEYMFCAGYSDGSKDSCKGDSGGPHATHYRGTWYLTGIVSWGQGCATVGHFGVYTRVSQYIEWLQKLMRSEPRPGVLLRAPFP", "values": [{"measurement": "TF:FVIIa activity, hydrolysis of fluorogenic substrate SN-17c; 8 nM TFPI", "setting": "[1]", "result": "TFPI inhibited approximately 50% of TF:FVIIa activity under these conditions"}, {"measurement": "rate of FXa generation in the extrinsic tenase (Xase) assay (chromogenic FXa substrate, A405), normalised at 4 minutes; 1 nM TFPI", "setting": "[1]", "result": "TFPI reduced the rate of FXa generation at 4 minutes by nearly 70%"}]}
{"protein": "extrinsic Xase complex: re-lipidated recombinant human tissue factor (Innovin) and factor VIIa (Enzyme Research Laboratories) (protein) chain 1: SGTTNTVAAYNLTWKSTNFKTILEWEPKPVNQVYTVQISTKSGDWKSKCFYTTDTECDLTDEIVKDVKQTYLARVFSYPAGNVESTGSAGEPLYENSPEFTPYLETNLGQPTIQSFEQVGTKVNVTVEDERTLVRRNNTFLSLRDVFGKDLIYTLYYWKSSSSGKKTAKTNTNEFLIDVDKGENYCFSVQAVIPSRTVNRKSTDSPVECMGQEKGEFREIFYIIGAVVFVVIILVIILAISLHKCRKAGVGQSWKENSPLNVS chain 2: ANAFLEELRPGSLERECKEEQCSFEEAREIFKDAERTKLFWISYSDGDQCASSPCQNGGSCKDQLQSYICFCLPAFEGRNCETHKDDQLICVNENGGCEQYCSDHTGTKRSCRCHEGYSLLADGVSCTPTVEYPCGKIPILEKRNASKPQGR chain 3: IVGGKVCPKGECPWQVLLLVNGAQLCGGTLINTIWVVSAAHCFDKIKNWRNLIAVLGEHDLSEHDGDEQSRRVAQVIIPSTYVPGTTNHDIALLRLHQPVVLTDHVVPLCLPERTFSERTLAFVRFSLVSGWGQLLDRGATALELMVLNVPRLMTQDCLQQSRKVGDSPNITEYMFCAGYSDGSKDSCKGDSGGPHATHYRGTWYLTGIVSWGQGCATVGHFGVYTRVSQYIEWLQKLMRSEPRPGVLLRAPFP", "values": [{"measurement": "FXa generation by the extrinsic Xase (chromogenic FXa substrate); 2 nM TFPI", "setting": "[2]", "result": "curve #6 shows that TFPI shuts down Xa generation in the absence of ARC19499"}]}
{"protein": "Factor Xa (source not stated; Example 45) (protein) chain 1: ANSFLEEMKKGHLERECMEETCSYEEAREVFEDSDKTNEFWNKYKDGDQCETSPCQNQGKCKDGLGEYTCTCLEGFEGKNCELFTRKLCSLDNGDCDQFCHEEQNSVVCSCARGYTLADNGKACIPTGPYPCGKQTLER chain 2: IVGGQECKDGECPWQALLINEENEGFCGGTILSEFYILTAAHCLYQAKRFKVRVGDRNTEQEEGGEAVHEVEVVIKHNRFTKETYDFDIAVLRLKTPITFRMNVAPACLPERDWAESTLMTQKTGIVSGFGRTHEKGRQSTRLKMLEVPYVDRNSCKLSSSFIITQNMFCAGYDTKQEDACQGDSGGPHVTRFKDTYFVTGIVSWGEGCARKGKYGIYTKVTAFLKWIDRSMKTRGLPKAKSHAPEVITSSPLK", "values": [{"measurement": "FXa (1 nM) cleavage of chromogenic substrate S-2765, substrate added last", "setting": "[1]", "result": "In the presence of ≧8 nM TFPI, inhibition is nearly complete under these conditions and little product is formed"}]}
{"protein": "prothrombinase complex: factor Xa (Enzyme Research Laboratories) and factor Va (Haematologic Technologies) on phospholipid membrane (protein) chain 1: ANSFLEEMKKGHLERECMEETCSYEEAREVFEDSDKTNEFWNKYKDGDQCETSPCQNQGKCKDGLGEYTCTCLEGFEGKNCELFTRKLCSLDNGDCDQFCHEEQNSVVCSCARGYTLADNGKACIPTGPYPCGKQTLER chain 2: IVGGQECKDGECPWQALLINEENEGFCGGTILSEFYILTAAHCLYQAKRFKVRVGDRNTEQEEGGEAVHEVEVVIKHNRFTKETYDFDIAVLRLKTPITFRMNVAPACLPERDWAESTLMTQKTGIVSGFGRTHEKGRQSTRLKMLEVPYVDRNSCKLSSSFIITQNMFCAGYDTKQEDACQGDSGGPHVTRFKDTYFVTGIVSWGEGCARKGKYGIYTKVTAFLKWIDRSMKTRGLPKAKSHAPEVITSSPLK chain 3: AQLRQFYVAAQGISWSYRPEPTNSSLNLSVTSFKKIVYREYEPYFKKEKPQSTISGLLGPTLYAEVGDIIKVHFKNKADKPLSIHPQGIRYSKLSEGASYLDHTFPAEKMDDAVAPGREYTYEWSISEDSGPTHDDPPCLTHIYYSHENLIEDFNSGLIGPLLICKKGTLTEGGTQKTFDKQIVLLFAVFDESKSWSQSSSLMYTVNGYVNGTMPDITVCAHDHISWHLLGMSSGPELFSIHFNGQVLEQNHHKVSAITLVSATSTTANMTVGPEGKWIISSLTPKHLQAGMQAYIDIKNCPKKTRNLKKITREQRRHMKRWEYFIAAEEVIWDYAPVIPANMDKKYRSQHLDNFSNQIGKHYKKVMYTQYEDESFTKHTVNPNMKEDGILGPIIRAQVRDTLKIVFKNMASRPYSIYPHGVTFSPYEDEVNSSFTSGRNNTMIRAVQPGETYTYKWNILEFDEPTENDAQCLTRPYYSDVDIMRDIASGLIGLLLICKSRSLDRRGIQRAADIEQQAVFAVFDENKSWYLEDNINKFCENPDEVKRDDPKFYESNIMSTINGYVPESITTLGFCFDDTVQWHFCSVGTQNEILTIHFTGHSFIYGKRHEDTLTLFPMRGESVTVTMDNVGTWMLTSMNSSPRSKKLRLKFRDVKCIPDDDEDSYEIFEPPESTVMATRKMHDRLEPEDEESDADYDYQNRLAAALGIR chain 4: SNNGNRRNYYIAAEEISWDYSEFVQRETDIEDSDDIPEDTTYKKVVFRKYLDSTFTKRDPRGEYEEHLGILGPIIRAEVDDVIQVRFKNLASRPYSLHAHGLSYEKSSEGKTYEDDSPEWFKEDNAVQPNSSYTYVWHATERSGPESPGSACRAWAYYSAVNPEKDIHSGLIGPLLICQKGILHKDSNMPMDMREFVLLFMTFDEKKSWYYEKKSRSSWRLTSSEMKKSHEFHAINGMIYSLPGLKMYEQEWVRLHLLNIGGSQDIHVVHFHGQTLLENGNKQHQLGVWPLLPGSFKTLEMKASKPGWWLLNTEVGENQRAGMQTPFLIMDRDCRMPMGLSTGIISDSQIKASEFLGYWEPRLARLNNGGSYNAWSVEKLAAEFASKPWIQVDMQKEVIITGIQTQGAKHYLKSCYTTEFYVAYSSNQINWQIFKGNSTRNVMYFNGNSDASTIKENQFDPPIVARYIRISPTRAYNRPTLRLELQGCEVNGCSTPLGMENGKIENKQITASSFKKSWWGDYWEPFRARLNAQGRVNAWQAKANNNKQWLEIDLLKIKKITAIITQGCKSLSSEMYVKSYTIHYSEQGVEWKPYRLKSSMVDKIFEGNTNTKGHVKNFFNPPIISRFIRVIPKTWNQSIALRLELFGCDIY", "values": [{"measurement": "prothrombinase activity (thrombin generation from prothrombin, chromogenic thrombin substrate); 1 nM TFPI (fraction of activity)", "setting": "[2]", "result": 0.33}]}
{"protein": "Factor Xa (Enzyme Research Laboratories) (protein) chain 1: ANSFLEEMKKGHLERECMEETCSYEEAREVFEDSDKTNEFWNKYKDGDQCETSPCQNQGKCKDGLGEYTCTCLEGFEGKNCELFTRKLCSLDNGDCDQFCHEEQNSVVCSCARGYTLADNGKACIPTGPYPCGKQTLER chain 2: IVGGQECKDGECPWQALLINEENEGFCGGTILSEFYILTAAHCLYQAKRFKVRVGDRNTEQEEGGEAVHEVEVVIKHNRFTKETYDFDIAVLRLKTPITFRMNVAPACLPERDWAESTLMTQKTGIVSGFGRTHEKGRQSTRLKMLEVPYVDRNSCKLSSSFIITQNMFCAGYDTKQEDACQGDSGGPHVTRFKDTYFVTGIVSWGEGCARKGKYGIYTKVTAFLKWIDRSMKTRGLPKAKSHAPEVITSSPLK", "values": [{"measurement": "FXa (0.2 nM) cleavage of chromogenic substrate Pefachrome FXa 5523; 2 nM TFPI", "setting": "[2]", "result": "When TFPI and the chromogenic substrate were added to FXa at the same time, the rate of substrate cleavage decreased gradually as FXa was inhibited by TFPI"}]}
